ELISA signal and Positive rates data for five molecules are collected here from patent publication US20220380471A1 (US Dept. of Health and Human Services, published 2022).

Assay [1] addresses T1, recombinant human B7H3-Fc protein (human, UniProt Q5ZPR3 29-466, limits assumed).
T1 construct: 154 kDa non-reduced, 77 kDa reduced; also called hB7H3-Fc; not shown: Fc part
T1 sequence (looked up): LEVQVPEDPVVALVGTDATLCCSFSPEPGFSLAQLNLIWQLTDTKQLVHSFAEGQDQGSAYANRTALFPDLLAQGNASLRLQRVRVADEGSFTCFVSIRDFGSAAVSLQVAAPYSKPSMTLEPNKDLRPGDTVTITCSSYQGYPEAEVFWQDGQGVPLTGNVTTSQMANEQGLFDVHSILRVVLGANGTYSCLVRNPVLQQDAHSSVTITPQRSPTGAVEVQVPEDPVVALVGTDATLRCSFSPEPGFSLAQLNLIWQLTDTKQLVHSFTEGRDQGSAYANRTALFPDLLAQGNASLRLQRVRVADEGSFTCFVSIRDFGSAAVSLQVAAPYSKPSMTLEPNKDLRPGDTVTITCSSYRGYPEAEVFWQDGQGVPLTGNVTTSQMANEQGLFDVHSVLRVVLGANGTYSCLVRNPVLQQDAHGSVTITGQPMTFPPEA
Put plainly: phage ELISA. Summed up: (§1)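 Camel VHH phage from libraries of eight individual camels went through 3 rounds of panning on recombinant B7H3-Fc protein. The recorded ELISA signal reflects binding of the selected phage to immobilised human or other-species B7H3, or to control proteins, in a phage ELISA.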
For orientation: An ELISA detects its analyte on a solid surface through an enzyme-linked reagent.

A further assay has as its target IgG control. Put plainly: phage ELISA. The method in brief:
as §1

Assay [2] addresses T2, monkey B7H3-His (monkey).
T2 chain: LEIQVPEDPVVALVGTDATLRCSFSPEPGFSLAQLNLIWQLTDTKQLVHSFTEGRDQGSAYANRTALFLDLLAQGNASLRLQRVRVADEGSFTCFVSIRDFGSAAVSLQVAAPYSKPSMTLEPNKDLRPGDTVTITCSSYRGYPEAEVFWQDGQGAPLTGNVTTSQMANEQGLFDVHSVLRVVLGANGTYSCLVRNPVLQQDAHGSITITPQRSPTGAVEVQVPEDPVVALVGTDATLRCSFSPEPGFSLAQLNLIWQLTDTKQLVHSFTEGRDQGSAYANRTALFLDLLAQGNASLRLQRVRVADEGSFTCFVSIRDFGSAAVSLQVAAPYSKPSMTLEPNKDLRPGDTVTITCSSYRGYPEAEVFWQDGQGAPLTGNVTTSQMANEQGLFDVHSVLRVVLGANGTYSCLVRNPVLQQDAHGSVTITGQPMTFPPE
The assay is described as follows: ELISA, purified VHH. Summed up:
(§2)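 Phage panning on recombinant B7H3-Fc yielded camel VHH nanobodies, which were then purified. Their binding was tested by ELISA against immobilised recombinant proteins, including B7H3 fusion proteins and proteins other than B7H3, and recorded as the ELISA signal.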

The target in assay [3] is T1, recombinant human B7H3-Fc protein. Put plainly: ELISA, purified VHH. Summed up: as §2
Another assay concerns the target T3, hB7H3-His (human, UniProt Q5ZPR3 29-461, limits assumed).
T3 construct: not shown: His tag
T3 sequence (looked up): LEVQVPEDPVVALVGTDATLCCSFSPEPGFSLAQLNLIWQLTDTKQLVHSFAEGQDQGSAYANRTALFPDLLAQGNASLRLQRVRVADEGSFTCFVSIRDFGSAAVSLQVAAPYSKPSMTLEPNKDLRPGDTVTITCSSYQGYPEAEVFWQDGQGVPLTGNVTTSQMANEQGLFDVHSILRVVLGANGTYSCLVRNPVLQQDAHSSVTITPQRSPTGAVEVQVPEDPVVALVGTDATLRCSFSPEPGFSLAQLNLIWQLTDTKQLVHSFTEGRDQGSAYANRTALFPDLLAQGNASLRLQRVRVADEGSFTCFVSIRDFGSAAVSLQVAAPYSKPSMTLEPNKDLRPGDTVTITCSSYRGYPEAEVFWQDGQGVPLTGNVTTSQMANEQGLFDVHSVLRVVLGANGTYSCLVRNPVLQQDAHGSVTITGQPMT
The assay is described as follows: ELISA, purified VHH. Summed up: as §2

Assay [4] deals with T4, rat B7H3-His (rat, UniProt Q7TPB4 29-244, limits assumed).
T4 construct: not shown: His tag
T4 sequence (looked up): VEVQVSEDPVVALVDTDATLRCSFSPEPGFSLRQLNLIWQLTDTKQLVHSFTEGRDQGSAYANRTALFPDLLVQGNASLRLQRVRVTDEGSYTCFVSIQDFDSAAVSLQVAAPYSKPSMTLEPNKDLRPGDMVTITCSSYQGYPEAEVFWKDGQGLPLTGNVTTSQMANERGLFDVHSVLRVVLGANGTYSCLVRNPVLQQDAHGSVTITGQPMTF
Put plainly: ELISA, purified VHH. The method in brief: as §2

Assay [5] concerns the target Non-relevant antigen. The assay is described as follows: ELISA, purified VHH. The method in brief:
as §2

The target in assay [6] is T2, monkey B7H3-His. The assay is described as follows: phage ELISA, cross-species. Summed up: as §1
Assay [7] addresses T4, rat B7H3-His. Put plainly: phage ELISA, cross-species. Summed up: as §1
The target of the next assay is T5, mouse B7H3-His (mouse, UniProt Q8VE98 29-244, limits assumed).
T5 construct: also called recombinant mouse B7H3-His protein; not shown: His tag
T5 sequence (looked up): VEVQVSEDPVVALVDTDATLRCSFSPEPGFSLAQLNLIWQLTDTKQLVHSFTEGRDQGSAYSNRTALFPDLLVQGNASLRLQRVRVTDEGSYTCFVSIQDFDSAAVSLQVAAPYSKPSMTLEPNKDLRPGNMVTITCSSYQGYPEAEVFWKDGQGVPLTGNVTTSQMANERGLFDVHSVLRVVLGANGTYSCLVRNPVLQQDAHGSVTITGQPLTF
Put plainly: phage ELISA, cross-species. The method in brief:
as §1

A further assay concerns the target T6, human B7H3 (human, UniProt Q5ZPR3 29-466, limits assumed).
T6 construct: also called human B7H3 protein
T6 sequence (looked up): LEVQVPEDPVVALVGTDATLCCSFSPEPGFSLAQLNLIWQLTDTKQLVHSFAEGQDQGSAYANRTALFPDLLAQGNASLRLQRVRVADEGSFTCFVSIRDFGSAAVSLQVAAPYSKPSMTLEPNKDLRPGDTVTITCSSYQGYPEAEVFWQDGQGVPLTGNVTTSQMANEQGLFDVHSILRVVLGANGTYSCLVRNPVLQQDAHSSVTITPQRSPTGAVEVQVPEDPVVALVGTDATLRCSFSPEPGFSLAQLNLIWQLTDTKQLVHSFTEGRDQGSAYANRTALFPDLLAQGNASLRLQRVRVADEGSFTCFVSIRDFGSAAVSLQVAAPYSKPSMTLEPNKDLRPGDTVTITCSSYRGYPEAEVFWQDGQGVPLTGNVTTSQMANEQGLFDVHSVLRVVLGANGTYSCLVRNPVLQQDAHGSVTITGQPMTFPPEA
The assay is described as follows: phage ELISA, cross-species. Summed up: as §1

Assay [8] concerns the target Non-relevant antigen. The assay is described as follows: phage ELISA, cross-species. The method in brief: as §1
In another assay the target is PD-L1. The assay is described as follows: ELISA, purified VHH, cross-reaction.
In assay [9] the target is T7, B7H3 (CD276) on MC38-CD276+ cells.
T7 construct: whole, on cells; MC38-CD276KO cells served as the negative control; also called MC38-B7H3+
T7 sequence (Q5ZPR3 1-534, species assumed, looked up): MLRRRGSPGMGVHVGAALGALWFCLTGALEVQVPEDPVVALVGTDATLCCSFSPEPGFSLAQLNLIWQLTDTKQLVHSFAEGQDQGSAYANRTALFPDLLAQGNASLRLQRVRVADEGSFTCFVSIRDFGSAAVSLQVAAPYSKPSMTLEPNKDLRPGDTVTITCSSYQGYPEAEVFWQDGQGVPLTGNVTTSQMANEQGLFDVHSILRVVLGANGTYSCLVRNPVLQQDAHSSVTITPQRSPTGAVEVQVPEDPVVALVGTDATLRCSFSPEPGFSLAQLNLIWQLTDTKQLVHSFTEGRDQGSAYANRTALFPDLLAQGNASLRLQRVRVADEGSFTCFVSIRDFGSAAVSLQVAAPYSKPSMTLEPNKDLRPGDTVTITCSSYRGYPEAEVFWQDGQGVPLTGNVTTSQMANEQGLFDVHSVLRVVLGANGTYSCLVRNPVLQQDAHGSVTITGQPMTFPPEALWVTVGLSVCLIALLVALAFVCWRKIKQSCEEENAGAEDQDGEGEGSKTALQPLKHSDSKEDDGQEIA
Put plainly: flow cytometry on MC38-CD276+ cells, VHH at 2 ug/ml. For orientation: Flow cytometry measures light scatter and fluorescence of single cells or particles in a stream.

Assay [10] has the same target. Put plainly: flow cytometry on MC38-CD276+ cells, VHH at 10 ug/ml.
For assay [11] the target is unchanged. The assay is described as follows: flow cytometry on MC38-CD276+ cells, VHH at 50 ug/ml.
Assay [12] has the same target. The assay is described as follows: flow cytometry on MC38-CD276+ cells, VHH at 0.5 ug/ml.

Sequence of PD-L1 (Q9NZQ7 whole entry): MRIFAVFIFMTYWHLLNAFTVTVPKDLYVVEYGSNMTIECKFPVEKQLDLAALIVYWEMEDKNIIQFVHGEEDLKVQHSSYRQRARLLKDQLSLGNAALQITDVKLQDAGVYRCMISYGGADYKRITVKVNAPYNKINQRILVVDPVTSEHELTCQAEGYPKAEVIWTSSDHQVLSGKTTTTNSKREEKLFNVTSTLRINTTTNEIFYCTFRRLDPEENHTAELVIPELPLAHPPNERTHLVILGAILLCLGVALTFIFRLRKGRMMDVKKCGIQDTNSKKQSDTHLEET

B1: RWH1 (VHH)
VHH: AVQLVESGGGSVQAGGSLRLSCAASGMNLDNYVRGWLRQAPGSKCEFVSIIRRDGTTDYGDSVKGRFTISRDNAKNTVYLQMNSLKPDDTAVYYCAAIVVPRAAEYACDGLPYRGQGTQVTVSS
notes: Camel VHH; tag not described; also called camel antibody RWH1
In the case of B1, the ELISA signal was determined as 2.75 in assay [1]; 0.136 with IgG control; 1.3 in the assay with monkey B7H3-His [2]; 2.59 in assay [3]; 2.65 with hB7H3-His; 0.134 with rat B7H3-His [4]. Besides, the ELISA signal worked out at 0.131 with Non-relevant antigen [5]; 0.0706 in the assay with monkey B7H3-His [6]; 0.0951 with rat B7H3-His [7]; 0.0738 in the assay with mouse B7H3-His; 2.03 in the assay with human B7H3; 0.0608 with Non-relevant antigen [8]. The molecule also had an ELISA signal with PD-L1 of 0.0753.

B2: RWH5 (VHH)
VHH: AVQLVESGGGSVQAGGSLRLSCKASGYCMGWFRQAPGKEREGVAALNTEGGVTYYADSVKGRFSISRDNTNLYLQMNSLKPEDTAIYYCAADDRPTRCAVGSLYLPYTYRGQGTQVTVSS
notes: Camel VHH; tag not described; also called RWHS [sic]; camel antibody RWH5
As for B2, the results for the ELISA signal with monkey B7H3-His [2] and in the assay with monkey B7H3-His [6] were 0.0979 and 2.22, respectively.

B3: RWC3 (VHH)
VHH: QVQLVESGGGLVQPGGSLSVSCAASGFTFSVYWFYWVRQAPRQGLEWVSTIASNGSTYYSDSVKGRFTISRDNAKNTVYLQMNSLKPEDTAVYYCVSDPDYYSDYERAYKFWAQGTQVTVSS
notes: Camel VHH; tag not described; also called camel antibody RWC3
For B3, the ELISA signal in [1] amounted to 2.42; with IgG control it was 0.0888; in assay [3], 2.34; with monkey B7H3-His [6], 0.228; with rat B7H3-His [7], 0.738; with mouse B7H3-His, 0.0759. Besides, the figures for the ELISA signal with human B7H3, with Non-relevant antigen [8] and in the assay with PD-L1 were 2.14, 0.0654 and 0.0454, respectively.

B4: RWD9 (VHH)
VHH: EVQLVESGGGLVQPGGSLSVSCAASGFTFSVYWFYWVRQAPRQGLEWVSTIASNGSTYYSDSVKGRFTISRDNAKNTVYLQMNSLKPEDTAVYYCVSDPDYYSDYERAYKFWAQGTQVTVSS
notes: Camel VHH; tag not described; also called camel antibody RWD9
B4: the ELISA signal in assay [1] came to 2.43; in the assay with IgG control it was 0.0788; in assay [3], 0.499; in the assay with monkey B7H3-His [6] it was 0.237; with rat B7H3-His [7], 0.778; in the assay with mouse B7H3-His, 0.0782. For the same molecule, the ELISA signal with human B7H3 turned out to be 2.21; with Non-relevant antigen [8], 0.113; with PD-L1, 0.0438.

B5: RWD5 (VHH)
VHH: AVQLVESGGGLVQPGGSLSVSCAASGFTFSVYWFYWVRQAPRQGLEWVSTIASNGSTYYSDSVKGRFTISRDNAKNTVYLQMNSLKPEDTAVYYCVSDPDYYSDYEREYKFWAQGTQVTVSS
notes: Camel VHH; tag not described; also called RWDS [sic]; camel antibody RWD5
Regarding B5, the ELISA signal was 2.5 in [1]; 0.0685 in the assay with IgG control; 2.37 in [3]; 0.267 in the assay with monkey B7H3-His [6]; 0.871 with rat B7H3-His [7]; 0.0819 in the assay with mouse B7H3-His. Further, the ELISA signal in the assay with human B7H3 came out at 2.13; with Non-relevant antigen [8], 0.0583; in the assay with PD-L1, 0.0471. The Positive rates amounted to 1.44% in assay [9], 44.9% in assay [10], 88.9% in [11] and 0.19% in [12].
